Target: CD20 polypeptide (safety switch) expressed on transduced T cells (human) (UniProt P11836)
Assay: cell-based or functional assay

Chain of UniProt P11836 (P11836 whole entry): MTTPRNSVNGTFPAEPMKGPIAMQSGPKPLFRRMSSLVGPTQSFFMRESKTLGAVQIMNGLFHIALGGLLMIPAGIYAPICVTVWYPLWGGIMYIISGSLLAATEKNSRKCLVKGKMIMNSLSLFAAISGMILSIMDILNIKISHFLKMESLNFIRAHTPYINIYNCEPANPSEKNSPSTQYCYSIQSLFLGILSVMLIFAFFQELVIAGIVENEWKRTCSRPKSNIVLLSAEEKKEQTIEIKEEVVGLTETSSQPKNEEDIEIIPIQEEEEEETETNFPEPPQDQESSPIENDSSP

Rituximab (Rituxan®, Biogen) (antibody)
4-hour chromium release assay on IL13Rα2-CAR^CD20 T cells: 70%
decrease in CD20+ cell number by flow cytometry after 1 hour (rituximab + complement vs rituximab alone): > 30%
killing of CD123-CAR T cells by rituximab and complement: 80%

Reference: patent publication US20220195007A1
